Test results as given in publication PMC4881466.

Biological target: Lys69 (UniProt position 69, KALAVKVFKMT)
Test: UV-vis
Details: not stated (100 mM buffers); 100 mM sodium phosphate/citrate (pH 4-6), sodium phosphate (pH 6.2-8.6), sodium carbonate (pH > 8.6); ferrous-deoxy, no exogenous ligand

Non-symbiotic hemoglobin 2 (AHb2) H66L mutant (Arabidopsis thaliana; H66L)
pKa: 10 ± 0.2
